Biological target: T1, human TIGIT on cells (Jurkat-hTIGIT, human primary T cells) (human, UniProt Q495A1 22-244)
T1 construct: whole, on cells; The cell type is named in each row's assay; also called membrane expressed human TIGIT
T1 sequence (looked up): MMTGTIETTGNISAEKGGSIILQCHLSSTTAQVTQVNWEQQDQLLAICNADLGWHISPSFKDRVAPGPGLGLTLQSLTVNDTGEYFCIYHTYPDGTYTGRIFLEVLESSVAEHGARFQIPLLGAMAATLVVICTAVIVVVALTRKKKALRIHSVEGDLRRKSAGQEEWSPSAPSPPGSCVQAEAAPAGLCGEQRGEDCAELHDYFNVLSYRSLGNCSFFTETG
Test: flow cytometry on Jurkat-hTIGIT, no 31282

B1: anti-TIGIT antibody clone 32959 (antibody, human IgG1, V domains shown)
VH: QVQLVQSGAEVKKPGSSVKVSCKASGGTFSSYLISWVRQAPGQGLEWMGGIYPIFATANYAQKFQGRVTITADESTSTAYMELSSLRSEDTAVYYCAREAQSYRVPFDIWGQGTMVTVSS
VL: EIVMTQSPATLSVSPGERATLSCRASQSVSSNLAWYQQKPGQAPRLLIYGASTRATGIPARFSGSGSGTEFTLTISSLQSEDFAVYYCQQYAIWPPFTFGGGTKVEIK
modifications: AF647 dye coupled to the antibody in Examples 24 and 36; the site is not stated and the letters do not carry it.
notes: human IgG1 from HEK cells
Cell binding Jurkat Human TIGIT FON (Fold Over Negative): 588 fold over negative

— patent US20220306733A1 (ITEOS BELGUIM, published 2022)
